Patent publication US7582427B2, “Method of estimating drug metabolic activity by analyzing mutations in glucuronosyl transferase gene” (National University Corporation Shiga University of Medical …, priority 2002, dated 2009)
Residue numbers refer to the chain shown, from its start. Numbers in names are those of the source. Blank lines part the entries; values can stand above or below the molecule they belong to.

Assays:
[1] = test system: UGT1A1 molecule; assay: UGT activity (glucuronidation) of recombinant UGT1A1 molecules, bilirubin as substrate; format: biochemical, human; settings: relative to normal
From the text: Further, it was shown that an abnormality of drug metabolism can be assayed for more effectively by combining this detection with detection of (a) mutation(s) in the regions of exons 1 to 4 other than the exon 5 region.

[2] = biological target: T1, UGT1A1 (Homo sapiens, UniProt P22309, Y486D); assay: Enzyme kinetics of glucuronidation of 2-amino-5-nitro-4-trifluoromethylphenol by UGT1A1, normal versus Y486D; format: biochemical
T1 sequence (P22309 26-533 Y486D): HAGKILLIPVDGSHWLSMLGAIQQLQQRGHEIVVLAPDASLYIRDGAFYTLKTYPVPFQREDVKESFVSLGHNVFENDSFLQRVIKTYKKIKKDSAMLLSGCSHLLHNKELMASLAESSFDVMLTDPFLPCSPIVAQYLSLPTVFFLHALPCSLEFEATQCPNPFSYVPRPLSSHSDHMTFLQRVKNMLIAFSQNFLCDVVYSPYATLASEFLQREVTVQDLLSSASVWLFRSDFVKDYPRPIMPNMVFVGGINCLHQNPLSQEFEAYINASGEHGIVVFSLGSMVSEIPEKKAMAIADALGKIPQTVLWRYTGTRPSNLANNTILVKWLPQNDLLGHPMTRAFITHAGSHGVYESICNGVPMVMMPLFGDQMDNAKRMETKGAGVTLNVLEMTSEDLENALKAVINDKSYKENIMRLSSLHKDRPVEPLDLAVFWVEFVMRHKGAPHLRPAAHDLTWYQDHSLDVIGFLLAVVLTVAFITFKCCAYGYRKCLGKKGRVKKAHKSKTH
From the text: 2-amino-5-nitro-4-trifluoromethylphenol is glucuronidated by UGT. The enzymatic reactions in glucuronidation by the enzymes of each of the isoforms UGT1A1 and UGT1A6 between their normal molecules and molecules with Y486D mutation were compared, respectively.

[3] = biological target: T1, UGT1A1; settings: fraction of normal enzyme activity, background report; cited from earlier work

maximum velocity relative to the maximum velocity of the wild type ([2]; substrate 2-amino-5-nitro-4-trifluoromethylphenol): about 12%
B1: Y486D (homozygous): recombinant UGT1A1 molecule with Y486D mutation (exon 5), tyrosine replaced with aspartic acid at position 486 (protein, UniProt P22309 26-533, looked up, variant Y486D)
UDP-glucuronosyltransferase …: T1 sequence (P22309 26-533 Y486D)
modifications: homozygous
UGT relative activity (glucronidation activity) [1]: 8% | Km value relative to wild type ([2]; with respect to 2-amino-5-nitro-4-trifluoromethylphenol): about half of that of the wild type | Km value relative to wild type ([2]; with respect to UDP-glucuronate): equal to that of the wild type | enzyme activity relative to that of the normal enzyme [3]: 1/13

B2: P229Q (heterozygous): recombinant UGT1A1 molecule corresponding to heterozygous P229Q mutation (protein, UniProt P22309 26-533, looked up, variant P229Q)
UDP-glucuronosyltransferase …: T1 sequence (P22309 26-533 Y486D) with P204Q, D461Y
modifications: heterozygous
notes: recombinant UGT1A1 molecule corresponding to heterozygous P229Q mutation
UGT relative activity (glucronidation activity) [1]: 15%

B3: Y486D (heterozygous): recombinant UGT1A1 molecule corresponding to heterozygous Y486D mutation (protein, UniProt P22309 26-533, looked up, variant Y486D)
UDP-glucuronosyltransferase …: T1 sequence (P22309 26-533 Y486D)
modifications: heterozygous
notes: recombinant UGT1A1 molecule corresponding to heterozygous Y486D mutation
UGT relative activity (glucronidation activity) [1]: 36%
